The term stoichiometry N denotes a count of units in the complex or per binding partner.

Sequences and labels used below:
T1: HHV-6B gB ectodomain (residues 1-680, strain Z29) with fusion loop substitutions, C-terminal Flag-tag (Human herpesvirus 6B (strain Z29), UniProt P36320 20-680, VGVV102-105 to HRTT | WLY187-189 to ATH)
T1 construct: signal peptide in the construct (predicted signal peptide residues 1-19); glycoprotein B of human herpesvirus 6B strain Z29, ectodomain residues 1-680; Same ectodomain as m1 (a trimer in the structure) with a Flag-tag instead of the His-tag; also called HHV-6B gB-Flag; wild-type HHV-6B gB-Flag; source: Expi293F, transiently transfected, purified from supernatant (Flag beads, 3xFlag peptide …)
T1 sequence: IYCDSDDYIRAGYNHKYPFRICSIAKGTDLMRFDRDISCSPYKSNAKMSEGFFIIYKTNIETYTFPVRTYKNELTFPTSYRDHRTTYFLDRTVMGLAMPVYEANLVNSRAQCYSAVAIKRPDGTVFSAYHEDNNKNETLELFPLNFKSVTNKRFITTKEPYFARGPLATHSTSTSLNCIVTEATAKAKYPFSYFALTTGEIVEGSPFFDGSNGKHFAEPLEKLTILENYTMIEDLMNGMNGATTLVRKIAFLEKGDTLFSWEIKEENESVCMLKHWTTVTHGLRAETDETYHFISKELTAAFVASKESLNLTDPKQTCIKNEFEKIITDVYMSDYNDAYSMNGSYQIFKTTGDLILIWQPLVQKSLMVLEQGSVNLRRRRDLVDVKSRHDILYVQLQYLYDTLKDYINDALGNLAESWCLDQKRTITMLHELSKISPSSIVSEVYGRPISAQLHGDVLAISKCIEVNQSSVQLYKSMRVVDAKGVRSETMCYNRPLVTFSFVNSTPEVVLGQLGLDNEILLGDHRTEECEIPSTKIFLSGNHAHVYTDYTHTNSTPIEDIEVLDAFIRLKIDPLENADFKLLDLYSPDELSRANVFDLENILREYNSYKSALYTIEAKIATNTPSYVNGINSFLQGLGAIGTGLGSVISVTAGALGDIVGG

B1: human nectin-2 V-set domain (residues 1-158) fused with the Fc region of human IgG (Fc fusion)
chain: QDVRVQVLPEVRGQLGGTVELPCHLLPPVPGLYISLVTWQRPDAPANHQNVAAFHPKMGPSFPSPKPGSERLSFVSAKQSTGQDTEAELQDATLALHGLTVEDEGNYTCEFATFPKGSVRGMTWLRV
notes: signal peptide in the construct; human nectin cell adhesion molecule 2 (nectin-2), V-set domain, residues 1-158; also called V-set-Fc; source: Expi293F, transiently transfected, purified from supernatant (protein G resin, SEC)
B2: HHV-6B gB ectodomain (residues 1-680, strain Z29) with fusion loop substitutions, C-terminal His-tag (domain or fragment)
chain: T1 sequence
notes: signal peptide in the construct (predicted signal peptide residues 1-19); glycoprotein B of human herpesvirus 6B strain Z29, ectodomain residues 1-680; furin site 396RRRR|D400 not mutated, mostly uncleaved; also called HHV-6B gB-His; HHV-6B gB680-mut; source: Expi293F, transiently transfected, purified from supernatant (Ni Sepharose IMAC, Superdex 200 SEC); not shown: His6, C-terminal, kept

The target of data set [1] is T1, HHV-6B gB ectodomain (residues 1-680, …). In words: co-IP; purified proteins: 4 µg V-set-Fc with 8 µg HHV-6B gB (His- or Flag-tagged), 4°C 2 h, protein G beads overnight at 4°C; six washes in 50 mM HEPES pH 7.4, 150 mM NaCl, 5 mM EDTA, 0.5% NP40; immunoblot with anti-human IgG and anti-His or anti-Flag. The following applies: both partners purified. A general note: A western blot detects proteins with antibodies after separation by electrophoresis.

The target in data set [2] is B2. The data set is described as above. Particulars: both partners purified.
Data set [3] concerns the molecule itself. In words: cryo-EM structure; HHV-6B gB-His at 10 mg/ml in PBS with 0.1% DDM; single-particle analysis, C3 symmetry applied, 2.8 Å; postfusion trimer.

For B1, the binding result in data set [1] and in data set [2] was “binds” in each case.

B2: the “stoichiometry N” value in data set [3] is 3.

(Values after paper PMC12240383, “Human herpesvirus 6B glycoprotein B postfusion structure, vulnerability mapping, and receptor recognition” (PLOS Pathogens, 2025).)
